{"source": "paper PMC8452523", "about": "(Cell Reports, 2021)", "binders": {"B1": {"name": "REGN10987 (antibody, V domains shown)", "VH": "QVQLVESGGGVVQPGRSLRLSCAASGFTFSNYAMYWVRQAPGKGLEWVAVISYDGSNKYYADSVKGRFTISRDNSKNTLYLQMNSLRTEDTAVYYCASGSDYGDYLLVYWGQGTLVTVSS", "VL": "QSALTQPASVSGSPGQSITISCTGTSSDVGGYNYVSWYQQHPGKAPKLMIYDVSKRPSGVSNRFSGSKSGNTASLTISGLQSEDEADYYCNSLTSISTWVFGGGTKLTVL"}, "B2": {"name": "REGN10933 (antibody, V domains shown)", "VH": "QVQLVESGGGLVKPGGSLRLSCAASGFTFSDYYMSWIRQAPGKGLEWVSYITYSGSTIYYADSVKGRFTISRDNAKSSLYLQMNSLRAEDTAVYYCARDRGTTMVPFDYWGQGTLVTVSS", "VL": "DIQMTQSPSSLSASVGDRVTITCQASQDITNYLNWYQQKPGKAPKLLIYAASNLETGVPSRFSGSGSGTDFTFTISGLQPEDIATYYCQQYDNLPLTFGGGTKVEIK"}, "B3": {"name": "P5C3 human monoclonal antibody (antibody, V domains shown)", "VH": "QMQLVQSGPEVKKPGTSVKVSCKASGFTFTSSAVQWVRQARGQRLEWIGWIVVGSGNTDYAQQFQERVTITRDMSTSTAYMELSSLGSEDTAVYYCAAPNCSGGSCYDGFDLWGQGTMVTVSS", "VL": "EIVLTQSPGTLSLSPGERATLSCRGSQSVRSSYLGWYQQKPGQAPRLLIYGASSRATGIPDRFSGSGSGTDFTLTISRLEPEDFAVYYCQQYGSSPWTFGQGTKVEIK"}}, "data": [{"target": "Spike RBD protein (SARS-CoV-2, UniProt P0DTC2)", "test": "Luminex bead-based competitive binding assay", "values": [{"binder": "B1", "binding result": "binds"}, {"binder": "B2", "binding result": "binds"}, {"binder": "B3", "binding result": "binds"}]}]}
